Data published in US20020123042.

Key:
[1] = molecular target: wild type huBUB3 (plasmid p291-2)
[2] = molecular target: PHAS-I (Strategene)
PHAS-I (Strategene), sequence (Q60876 2-117): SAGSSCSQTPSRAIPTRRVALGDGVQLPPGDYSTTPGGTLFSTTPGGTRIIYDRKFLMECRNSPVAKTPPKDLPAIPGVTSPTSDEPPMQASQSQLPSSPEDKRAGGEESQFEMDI

wild type huBUB3 (plasmid p291-2), sequence (chain, as listed by the source): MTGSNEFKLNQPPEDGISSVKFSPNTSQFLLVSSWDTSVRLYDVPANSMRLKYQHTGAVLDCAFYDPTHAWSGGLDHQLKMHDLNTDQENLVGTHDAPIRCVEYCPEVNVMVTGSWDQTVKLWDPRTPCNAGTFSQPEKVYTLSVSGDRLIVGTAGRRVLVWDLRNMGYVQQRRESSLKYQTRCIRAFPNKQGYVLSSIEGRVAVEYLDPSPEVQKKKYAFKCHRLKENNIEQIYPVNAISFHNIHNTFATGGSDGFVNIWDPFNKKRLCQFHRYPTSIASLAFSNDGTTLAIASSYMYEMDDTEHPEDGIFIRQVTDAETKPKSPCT

B1: full-length HA-epitope tagged huBUB1 (plasmid p396-1) (protein)
chain: GGGGGGMDTPENVLQMLEAHMQSYKGNDPLGEWERYIQWVEENFPENKEYLITLLEHLMKEFLDKKKYHNDPRFISYCLKFAEYNSDLHQFFEFLYNHGIGTLSSPLYIAWAGHLEAQGELQHASAVLQRGIQNQAEPREFLQQQYRLFQTRLTETHLPAQARTSEPLHNVQVLNQMITSKSNPGNNMACISKNQGSELSGVISSACDKESNMERRVITISKSEYSVHSSLASKVDVEQVVMYCKEKLIRGESEFSFEELRAQKYNQRRKHEQWVNEDRHYMKRKEANAFEEQLLKQKMDELHKKLHQVVETSHEDLPASQERSEVNPARMGPSVGSQQELRAPCLPVTYQQTPVNMEKNPREAPPVVPPLANAISAALVSPATSQSIAPPVPLKAQTVTDSMFAVASKDAGCVNKSTHEFKPQSGAEIKEGCETHKVANTSSFHTTPNTSLGMVQATPSKVQPSPTVHTKEALGFIMNMFQAPTLPDISDDKDEWQSLDQNEDAFEAQFQKNVRSSGAWGVNKIISSLSSAFHVFEDGNKENYGLPQPKNKPTGARTFGERSVSRLPSKPKEEVPHAEEFLDDSTVWGIRCNKTLAPSPKSPGDFTSAAQLASTPFHKLPVESVHILEDKENVVAKQCTQATLDSCEENMVVPSRDGKFSPIQEKSPKQALSSHMYSASLLRLSQPAAGGVLTCEAELGVEACRLTDTDAAIAEDPPDAIAGLQAEWMQMSSLGTVDAPNFIVGNPWDDKLIFKLLSGLSKPVSSYPNTFEWQCKLPAIKPKTEFQLGSKLVYVHHLLGEGAFAQVYEATQGDLNDAKNKQKFVLKVQKPANPWEFYIGTQLMERLKPSMQHMFMKFYSAHLFQNGSVLVGELYSYGTLLNAINLYKNTPEKVMPQGLVISFAMRMLYMIEQVHDCEIIHGDIKPDNFILGNGFLEQDDEDDLSAGLALIDLGQSIDMKLFPKGTIFTAKCETSGFQCVEMLSNKPWNYQIDYFGVAATVYCMLFGTYMKVKNEGGECKPEGLFRRLPHLDMWNEFFHVMLNIPDCHHLPSLDLLRQKLKKVFQQHYTNKIRALRNRLIVLLLECKRSRK
With B1 the “autophosphorylation of HA-huBUB1” value [1] was “Co-translation of huBUB3 may stimulate this autophosphorylation activity”.

B2: wild-type huBUB1 (full-length, plasmid p385-1) (protein)
chain: MDTPENVLQMLEAHMQSYKGNDPLGEWERYIQWVEENFPENKEYLITLLEHLMKEFLDKKKYHNDPRFISYCLKFAEYNSDLHQFFEFLYNHGIGTLSSPLYIAWAGHLEAQGELQHASAVLQRGIQNQAEPREFLQQQYRLFQTRLTETHLPAQARTSEPLHNVQVLNQMITSKSNPGNNMACISKNQGSELSGVISSACDKESNMERRVITISKSEYSVHSSLASKVDVEQVVMYCKEKLIRGESEFSFEELRAQKYNQRRKHEQWVNEDRHYMKRKEANAFEEQLLKQKMDELHKKLHQVVETSHEDLPASQERSEVNPARMGPSVGSQQELRAPCLPVTYQQTPVNMEKNPREAPPVVPPLANAISAALVSPATSQSIAPPVPLKAQTVTDSMFAVASKDAGCVNKSTHEFKPQSGAEIKEGCETHKVANTSSFHTTPNTSLGMVQATPSKVQPSPTVHTKEALGFIMNMFQAPTLPDISDDKDEWQSLDQNEDAFEAQFQKNVRSSGAWGVNKIISSLSSAFHVFEDGNKENYGLPQPKNKPTGARTFGERSVSRLPSKPKEEVPHAEEFLDDSTVWGIRCNKTLAPSPKSPGDFTSAAQLASTPFHKLPVESVHILEDKENVVAKQCTQATLDSCEENMVVPSRDGKFSPIQEKSPKQALSSHMYSASLLRLSQPAAGGVLTCEAELGVEACRLTDTDAAIAEDPPDAIAGLQAEWMQMSSLGTVDAPNFIVGNPWDDKLIFKLLSGLSKPVSSYPNTFEWQCKLPAIKPKTEFQLGSKLVYVHHLLGEGAFAQVYEATQGDLNDAKNKQKFVLKVQKPANPWEFYIGTQLMERLKPSMQHMFMKFYSAHLFQNGSVLVGELYSYGTLLNAINLYKNTPEKVMPQGLVISFAMRMLYMIEQVHDCEIIHGDIKPDNFILGNGFLEQDDEDDLSAGLALIDLGQSIDMKLFPKGTIFTAKCETSGFQCVEMLSNKPWNYQIDYFGVAATVYCMLFGTYMKVKNEGGECKPEGLFRRLPHLDMWNEFFHVMLNIPDCHHLPSLDLLRQKLKKVFQQHYTNKIRALRNRLIVLLLECKRSRK
In the case of B2, the “phosphorylation of an exogenous substrate (33P-ATP kinase reaction of immunopurified FLAG-BUB3/BUB1, SDS-PAGE, autoradiography)” value [2] is reported as “only PHAS-I demonstrated clear huBUB1-dependent activity as a kinase substrate”.
